From a protein production outcome set (Wang et al. 2014)

Assay: label from the status in PepcDB records

## MSGMAKYMEIYIDIRDKINQNKYEINEKLPDGDSMARTYDCSKLTVKKALDMLVQEGMIIRRRGAGTFVKSHSTNGGEFALGPMSGLVNTFGKDNIKSKVILFSIEKPSKEVAEKLEMQDDYIYRIIRMREVGHKAYSIEHTYMPLAIIPGLEPHHLEDSIYNYIRDDLKLKMQSAHVWVRGDKSNQEDSKLLDLEEPTFMMEIEKLAHLEDGRVFEYSITRHTYESFVFETVFVQN
  protein production: failed

## MSGNSDEATAPGADWDALAASFDDEPDHGLRDAEVRRAWAARLASWLPAPPGDVLDLGCGTGSLSLLAAEQGHRVTGVDLSPAMVELARTKLAGRDAVFLTGDAAAPPVGEQRFDAVLVRHVLWTLPDPGRALRHWRQLLRPGGRLVLVEGVWGSVSPVGIPADRVTALLGPLTGQARVERLSDDPSLWGREVADERYAVVATYG
  protein production: failed

## MSGNVGAGRHADELAIRTVQYRWLEATRKFDRQVLSSLMTDDVVFLTPGRLPFGKEEFLAACEQNDQRVIIEASATFEEIVIVEPMAYTRTHLHIKVTPRSGGAVRELAGHAMSIFRRSMFGEWQLARDANLVVPI
  protein production: not failed

## MSGSEYSEVDVNEGDSIWALADQYAAKSDMAKADFVSWVEKENNLTDGHVKAGDYVVIPVHETKLQRSDSTIQLANQLEHHHHHH
  protein production: not failed

## MSGSGKTITQMKSTAILAPVIAVILILSACGKPMDAQALVAEAKQYQQQGNDKAAIIQLKNALQQSPNDPEIRYLLGTLYNREGDIQSAEKELNKALDLGMDPVKVLPGLSRAWLGMGKFQQVLDETGKLSDKGNFAELLALRGNASLALGKFEEAKVLFEQALQDKPGFSDALTGLARYSLARNDIESAMNFSEEAVKLNPENSDAVLFRGDLLRAQNKIDEALADYDKAIKLNPESEAAYINRATISISTKKFEAAQADLDAVRKIAPGSLLAAYTQALLDFSQGKHAVALETLQRILSSAPGHLPSVLLAGATQFALGSFPQAGQYVEQYLKAIPNNLYAIKLMASIQLKNNQVKQAITTLTPALKSVQQDPQLFALAGEAYMRSKDFTKASEYFEKAGELAPDNASLYTALAMSKMGQGDSKSAIADLEQAAQLDDQSGRAGVMLVLTHLQLREFDKALKAVESQLAEQPDNPLLHNLKGGIYLGKKDLAKARSSFNQALSIQSDYFPAISNLARIDMQENHPEAAQQRFEDVLKRDKKNVQAMNALAGIALARGNKEEATGWLEKASRENPDELQPALQLGAHYLAVNDPGKSLALAKKLQGIHPDNLSIVELLARSYLATGDKDAALENFQKLAARLPDSAPAQLQLAQIYSSMQNNKAAAGSLKKALTIKPDLWEAKLMQAQLAVAADRVEDAFNISHDLQKQHEKLPVGFELEGDLQMRQKNAAAAATAYEKALSRQKNSQLLIKLHTALSQSGKEKQADQRLNQWLKENPTDAVTRTYLAGVYLASKKYDPAIKEYQTILKQHPDHAATLNNLAWVYQQKKDPVALEYAEKAYKQAPDSPAILDTLGWILIEKGDAERGTSLLQKAVTAVPEAAEIRYHYAVGLFKSGNKAEARQELEKLLGGDKPFPQRDDAKKLLESL
  protein production: failed

## MSGSKTSAEKKESETEKSSDIAQVKIKDVSYTLPSKYDKSTSDDQLVLKVNVAVKNTGKDPLNVDSMDFTLYQGDTKMSDTDPEDYSEKLQGSTINADKSVEGNLFFVVDKGKQYELNYTPESYGDKKPKSVTFKIDGKDKKILATADKLQDSAKALSAYVDVLLFGKDNADFEKITGANKNEIVNDFNESAKDGYLSASGLSSTYADSKALDNIVNGIKEGLSKNSSIQAKTTSISKDEAIVEATVKPVDASSLSDRIEDKVKDYYSKNSSASYEEAVKYALQVYPEEFKKLGPASSEKTVEVKMKKNDIDQWQLDMDDYRAAELVEAFIKELEHHHHHH
  protein production: not failed

## MSGSNVAPEDKRMEDRKFRANIPPQTIVFCTVYQTTIGLTNSQHQKIRLASLRLPLLFFQQRQTSAAPPKEDVMNEETLKKIQSNPKYLELVHKKTSLGWTLAIVMLVIYYGYILVLAFAPSLLGKPLYQGATMTVGIPVGVCIILSAFVLTGIYVRRANQEFDPLTQQIVEEAK
  protein production: failed

## MSGTRHQIVVALGDTRYRVDRPFGTWPQTAGKVSDVVVLRDGRVLVLLRSDPYVDPDGPRVIVLSCDGDYLGAWGDLDIADAHLMTPAPDGRLFIVDRDMHEIIVFSADGQRVGGIGTRGAPGTPFNHPTDVAFAPSGDFYVSDGYAGWHVHRFAGDGTHLATWGAFGSGRGEFLEPHSLWCLPDGRVVVVDRCNNRLQVFDADGVFLDEWTGFHRAVGIWGDDAGDIFVSDQVPSLHRISQNGTRLGRARPVLNGAHGIFGSPDGTIYLAEANPSRVSRLTPL
  protein production: failed

## MSGVLLLFIIGFIGSFISGMVGIGGAIINYPMILYIPVLLGFTGYTSHEVSGITAVQVFFATFAGAWAYRKSTDMNKMLVVYMGASILIGSFIGSFSANLLDEHAVNVVYTVLATIAAMMMFVPKKNNSGAVKYNKWLASVLAFIVGGVSGIIGAGGAFLLVPIMLVILKLPLRMTIATSIAITFISSVGITTGKVITGQVVIIPALIIAVASIFAAPLGARVGKRINQKVLQYMLSILIVGTAVKMWIDMILK
  protein production: failed

## MSHDHHHHHGPGAAHGAGGHSHAPQDFGRAFAIGIALNMVFVVAEAAFGYFSNSMALIADAGHNLSDVAGLVVAWIAAGLSKRPPSARYTYGLRGSSILAALFNAVFLLLAVGAIGWEAVVRLFAPEPVAGITVMVVAGIGIVINAVTAWLFASGRHSDLNIRGAYLHMAADAAVSAAVVVAGVIILSTGWYWIDPAVSLIVAVVIVWGTWGLLRDSTALSLAAVPRDIDPTAVRAFLSKLPGVTQVHDLHIWGMSTTEVALTCHLVMPGGSPGDPFLVDLAHELQHDFGIAHTTVQIETDPNTVCALAPEHVV
  protein production: failed

## MSHGGGGHAAELYPEEQIFAVGIALSLVGCYLANFLSPYGLGMLIGGLLASAACVAGANTVRKVAAYGLGTGVPSIGMVSLGMGTLAAVAGVLIPDYFNLPYLVAPIITLIVSAVIGYIVGRLTVNPVGMKIPIMVRSMTFLSIAGAMALLGFTVAYVGSLEPQKYIDYALNNGMMALAFIAAGMAILHPFNACLGPNESHKRTLTLAVACGFITWFVFSVVKLDIVSIIVSIILWAIVYVKFVKMSFKDACAVLHVPEIPKKEE
  protein production: failed

## MSHRRDYGSDAVHVRITHDPPPENCFPNSGDSSVWATEDDYSRVWAINSDGAESPSKKTRSSSSSEIGKSFFKTKLCFKFRAGTCPYSASSCHFAHSAEELRLPPPPPPNWQETVTEASRNRESFAVSLGPRGNVAQTLKSPNWKTRICNKWQTTGYCPFGSHCHFAHGPSGKATAFFIY
  protein production: failed

## MSHTEAATVHSTAPASHPVRIALIGAGRIGSNHAEIVARLVPGASLVAVSDPVGESAQRLATTLGASLATTTVDDVLTSDEVDAVLITAPARSHTDLVVAAAAAGKHVFVEKPMAVTLADADRAIAAAADAGIVLQVGFNRRFAPGFAAARAAIDAQKVGAPQLLRSLTRDPGPYTADPARVPQWTIFLETLIHDFDTLCFLNPDARPVRVHAVADALVRPDAKGAGHLDTAVVTVQFDNGAIATAEASFSALYGYDVRAEVFGSGGMITAGSGLSTDMTYYGPDGMHADTARRDTDLLHSAYLGELTAFVDAIRTHTPAVVTGQDARTALSIALAAIRSVETGSAVDLDG
  protein production: failed

## MSHTLKSVAEDWFAIKKTTITEVTAKSLWRKFENHVFPKLGHRPIDKILAPEAIEALKPLAAKGNLETTGKIIGHLNNIMTHAVNTGILHHNPLSGIRSAFSAPKVTNLEHHHHHH
  protein production: not failed

## MSHWLILPILLPLFAGSLLLLPLAERWQRGLSLLAALALIPLSLLLIRTAASGDLSVYALGNWAAPFGIVLMLDRLAALMLLATAVLGSAALIYALRGEDRLGKHFHALFQFQLLGINGAFLTGDLFNLFVFFEILLIASYALLLHGGGAERVRSGLHYVILNLVGSAFFLIAVGTLYGLTGTLNMADMAQKIAMADAERAPLLAAAGLLLLVVFALKAALLPLYFWLPRAYATASAPVAALFAIMTKVGIYSILRVYTLVFGDAAGELANLAQAWLWPLALATLGLGAIGALAARTLQGLLAYLVVVSAGTLLAGVALGSERALAASLYYLLHSTWIAGGLFLLADLVARQRGDKAGDLVQGPALQNPRLLGGAFFIGAIAVAGLPPLSGFFGKVMLLQSVAPGSQALALWSVVLGSGLVALVALSRAGSTLFWRTGHTVLGSAELDHGRLFACILLLSAGPLLVFAAKPLLAYVQATAAQLHDLDLYRQIITRGGAA
  protein production: failed
